Consider two molecules from patent US20050276811A1.

In assay [1] the target is IgM^CM-22. Briefly: cell-based or functional assay.
Assay [2] addresses IgM^CM-22. Briefly: competition ELISA: synthetic P8 peptide titrated against phage P8 binding to IgM^CM-22-coated plate. In general terms: In an ELISA, binding on a coated surface is turned into a signal by an enzyme label.
Assay [3] concerns the target IgM^CM-22. Briefly: SPR (BiaCore), IgM^CM-22 amine-coupled to CM5 chip, N2 injected at 10.5-120 µM, steady-state fit with 1:1 Langmuir isotherm.

Regarding NGNNVNGNRNNN [synthetic peptide P8], in the assay with IgM^CM-22 [1], the concentration of P8 sufficient to block IgM^CM-22 is 10 µM and the mean pathology score, intestinal RI in RAG-1-/- mice given IgM^CM-22 mixed with P8 versus IgM^CM-22 alone (pathology score) was 6. Besides, in the assay with IgM^CM-22 [2], the IC50 (as a rule, the concentration at which inhibition is half-maximal) came out at 10 µM.
In the assay with IgM^CM-22 [1], LMKNMDPLNDNV [self-peptide N2] came in with a mean pathology score, intestinal RI in RAG-1-/- mice given IgM^CM-22 mixed with N2 versus IgM^CM-22 and saline (pathology score) of 13. In addition, in the assay with IgM^CM-22 [3], the Kd (usually the constant that tells how readily two partners part at equilibrium) came to 123 µM.
